# According to publication PMC3003327 (The Journal of Cell Biology, 2010):
# B1: human VASP^1-380aa, unlabeled wild type (untagged hVASP^1-380aa) (natural protein)
# chain: GSMSETVICSSRATVMLYDDGNKRWLPAGTGPQAFSRVQIYHNPTANSFRVVGRKMQPDQQVVINCAIVRGVKYNQATPNFHQWRDARQVWGLNFGSKEDAAQFAAGMASALEALEGGGPPPPPALPTWSVPNGPSPEEVEQQKRQQPGPSEHIERRVSNAGGPPAPPAGGPPPPPGPPPPPGPPPPPGLPPSGVPAAAHGAGGGPPPAPPLPAAQGPGGGGAGAPGLAAAIAGAKLRKVSKQEEASGGPTAPKAESGRSGGGGLMEEMNAMLARRRKATQVGEKTPKDESANQEEPEARVPAQSESVRRPWEKNSTTLPRMKSSSSVTTSETQPCTPSSSDYSDLQRVKQELLEEVKKELQKVKEEIIEAFVQELRKRGSP
# Target: the molecule itself
# Assay: AUC
protein,measurement,value
B1,stoichiometry N,4
